Laboratory results from patent US20170119790A1, “Agents, Uses and Methods” (CYTOGUIDE A/S, priority 2009, published 2017).

Legend:
[1] = molecular target: T1, mouse CD163 1-5 LKIHDK-->VKVQEE, Y60R mutant (Mus musculus, UniProt Q2VLH6, D69E/H68Q/I67V/K70E/L65V/Y111R); assay: Western blotting of mouse CD163 and knock in mutant; assay type: binding
T1 construct: A mutant (LKIHDK-->VKVQEE, Y60R) in domain 1 of mouse CD163 1-5; host or cells: Lenti-X 293T, transient; captured from supernatant on Ni-NTA
T1 sequence (Q2VLH6 39-577 L65V/I67V/H68Q/D69E/K70E/Y111R): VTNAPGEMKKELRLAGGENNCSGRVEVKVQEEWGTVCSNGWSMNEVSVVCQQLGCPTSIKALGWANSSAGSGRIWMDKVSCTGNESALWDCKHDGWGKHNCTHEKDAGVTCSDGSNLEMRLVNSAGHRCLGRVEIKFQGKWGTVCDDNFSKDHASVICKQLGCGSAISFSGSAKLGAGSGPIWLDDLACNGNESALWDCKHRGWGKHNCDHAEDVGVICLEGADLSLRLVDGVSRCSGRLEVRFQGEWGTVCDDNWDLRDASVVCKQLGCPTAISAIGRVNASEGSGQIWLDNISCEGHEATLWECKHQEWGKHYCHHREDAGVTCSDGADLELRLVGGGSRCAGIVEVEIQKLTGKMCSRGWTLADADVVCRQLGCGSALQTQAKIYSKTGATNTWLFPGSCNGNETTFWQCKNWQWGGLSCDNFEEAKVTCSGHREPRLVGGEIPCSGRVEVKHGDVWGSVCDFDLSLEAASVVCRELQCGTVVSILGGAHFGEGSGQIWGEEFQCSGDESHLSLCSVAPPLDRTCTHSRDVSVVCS
Protocol: CD163 domain 1-5 was used for expression of mouse CD163 domain 1-5/V5/His. A mutant (LKIHDK-->VKVQEE, Y60R) in domain 1 of mouse CD163 1-5 was ordered as midiprep at GenScript (Piscataway, N.J., USA). Sequences DNA and protein of mutants are show below (mutant only domain 1).
The mouse CD163 1-5 and the mouse CD163 domain 1 mutant were expressed transient in Lenti-X 293T cells as follows: 1.5 μg of the DNA was diluted in OptiCHOPro SFM (8 mM L-glutamine) to a total volume of 50 μl The DNA was gently mixed with 50 μl of OptiCHOPro SFM containing 1.5 μl Freestyle MAX transfection reagent (Invitrogen, Taastrup, Denmark). After 10 min of incubation at room temperature the complexes were added to 1×10^6 cells in 1 ml. Three days later, the cell supernatants were harvested by centrifugation.
Tris pH 8 buffer, and cell culture supernatants were added 60 μl of Ni-NTA His-bind resin slurry. After 1 hour shaking at 4° C. the supernatants were aspired and each of the purifications were eluted with 90 μl 50 mM Tris pH 8, 25 mM EDTA buffer.
90 μl of each of the eluates were added 30 μl of 4×LDS sample buffer. 20 μl samples of each supernatant and 8 μl SeeBlue plus2 prestained marker were loaded on NuPage 4-12% Bis-Tris-Gels (Invitrogen, Taastrup, Denmark) and the SDS-PAGEs were run with MOPS running buffer according to instructions of the manufacturer (200 V constant for 50 min). […]

[2] = molecular target: T2, human CD163 wt (Homo sapiens, UniProt Q86VB7); assay: Western blotting of human CD163 and knock out mutants; assay type: binding
T2 construct: a pcDNA5-FRT-humanCD163 plasmid harboring the full length human CD163 cDNA; expressed in transfected cells; host or cells: HEK 293, transient
Protocol: Each cell pellet was added 1 ml lysis buffer (10 mM Tris pH 8, 140 mM NaCl, 15 mM MgSO4, 1% Triton X-100) and incubated for 15 min at 4 °C with rotation. After centrifugation for 30 min at 6000 rpm the supernatants were sterile filtered.
90 μl of each of the supernatants were added 30 μl of 4×LDS sample buffer. 3×20 μl samples of each supernatant and 8 μl SeeBlue plus2 prestained marker were loaded on NuPage 4-12% Bis-Tris-Gels (Invitrogen, Taastrup, Denmark) and the SDS-PAGEs were run with MOPS running buffer according to instructions of the manufacturer (200 V constant for 50 min). Blotting to PVDF membranes (Invitrogen, Taastrup, Denmark) was done on an iBLOT device according to instructions of the manufacturer. After blotting the membranes were washed briefly in 1×PBS 0.1% Tween and blocked for 30 min in 1×PBS 2% Tween at room temperature with shaking. After blocking the membranes were washed 3×5 min in 1×PBS 0.1% Tween and incubated 1 hour with: (1) 10 ml 1 μg/ml polyclonal rabbit anti-human CD163; (2) 10 ml 1 μg/ml Mac2-158; (3) 10 ml 1:500 KN2/NRY-HRP all diluted in 1×PBS 0.1% Tween. The membranes were washed with 3×5 min 1×PBS 0.1% Tween again and incubated with: (1) 10 ml Goat anti-rabbit-HRP 1:1000 (AbD Serotec, Oxford, UK); or (2) 10 ml Goat anti-mouse-HRP 1:1000 (Dako, Glostrup, Denmark) for 1 hour. […]

T2 sequence (Q86VB7 42-1156): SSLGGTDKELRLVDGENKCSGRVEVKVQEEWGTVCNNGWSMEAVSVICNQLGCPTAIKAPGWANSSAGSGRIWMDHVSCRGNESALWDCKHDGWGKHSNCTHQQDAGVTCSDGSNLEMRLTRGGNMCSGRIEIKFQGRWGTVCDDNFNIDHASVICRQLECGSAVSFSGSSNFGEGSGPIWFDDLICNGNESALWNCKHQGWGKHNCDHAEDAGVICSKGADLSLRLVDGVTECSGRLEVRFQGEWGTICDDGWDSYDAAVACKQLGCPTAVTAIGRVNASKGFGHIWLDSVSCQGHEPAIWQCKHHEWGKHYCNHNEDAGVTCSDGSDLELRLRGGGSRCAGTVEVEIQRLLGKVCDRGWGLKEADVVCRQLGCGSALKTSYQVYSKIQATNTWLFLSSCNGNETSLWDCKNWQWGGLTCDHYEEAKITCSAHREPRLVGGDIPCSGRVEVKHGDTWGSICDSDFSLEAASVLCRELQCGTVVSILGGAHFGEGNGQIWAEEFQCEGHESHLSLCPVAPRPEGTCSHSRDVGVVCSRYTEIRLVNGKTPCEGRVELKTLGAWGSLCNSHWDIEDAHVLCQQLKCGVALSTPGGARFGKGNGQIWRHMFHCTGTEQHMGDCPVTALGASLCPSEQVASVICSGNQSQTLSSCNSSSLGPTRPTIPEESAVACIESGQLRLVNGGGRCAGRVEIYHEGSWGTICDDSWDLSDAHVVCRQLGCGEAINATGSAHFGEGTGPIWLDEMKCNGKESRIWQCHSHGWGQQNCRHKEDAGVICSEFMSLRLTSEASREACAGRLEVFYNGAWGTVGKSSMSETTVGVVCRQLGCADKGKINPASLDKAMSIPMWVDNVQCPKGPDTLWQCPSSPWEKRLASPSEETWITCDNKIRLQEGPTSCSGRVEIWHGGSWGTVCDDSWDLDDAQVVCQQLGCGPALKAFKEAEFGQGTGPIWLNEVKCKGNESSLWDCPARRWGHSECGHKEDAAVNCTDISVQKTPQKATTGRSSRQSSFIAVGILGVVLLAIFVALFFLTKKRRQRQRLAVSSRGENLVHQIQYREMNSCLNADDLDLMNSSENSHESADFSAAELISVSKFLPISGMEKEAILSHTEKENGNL

B1: MAC2-158: anti-human CD163 murine mAb, binds SRCR domain 1, IQ Products; VH SEQ ID NO: 1, VL SEQ ID NO: 2 (antibody, V domains shown)
VH: DVQLQESGPGLVKPSQSLSLTCTVTGYSITSDYAWNWIRQFPGNKLEWMGYITYSGITNYNPSLKSQISITRDTSKNQFFLQLNSVTTEDTATYYCVSGTYYFDYWGQGTTLTVSS
VL: SVVMTQTPKSLLISIGDRVTITCKASQSVSSDVAWFQQKPGQSPKPLIYYASNRYTGVPDRFTGSGYGTDFTFTISSVQAEDLAVYFCGQDYTSPRTFGGGTKLEIKRA
modifications: Mac2-158 VH; Mac2-158 VL
[1]
  binding in western blot: did bind
[2]
  binding in western blot: bound
